Amyloid nucleation score data for 141 substances are collected here from the supplement of paper PMC12042874.

The nature of this series: amyloid nucleation score (Sup35N fusion, yeast selection) (log enrichment); library NNK2; higher = more nucleation; inactive = no reads after selection. The essentials:
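Sup35N fusions to peptides of 20 random codons were expressed in psi-negative yeast, induced 24 hours with 100 μM copper sulfate, and grown 7 days at 30°C on medium lacking adenine and uracil. Input and output plasmid inserts were sequenced by Illumina. The nucleation score is the DiMSum log enrichment of output over input reads, centred on the mode score of non-aggregating sequences. Sequences with under 100 input reads were excluded.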

± gives the uncertainty stated by the source.

SSCRTSSWLALVWFGLGVSG: the amyloid nucleation score turned out to be 0.177 ± 0.19.
Then IFVVCLGMDTVYLIGYYSPA, with -1.25 ± 0.78.
For VFASMFILFYV, the amyloid nucleation score was determined as 3.46 ± 0.07.
Substance PRRNTADCIGCTDRTGRRRC yielded an amyloid nucleation score of 0.6 ± 0.39.
Take FKICGTFDAFKKL: the amyloid nucleation score result is “inactive”.
Take DKRGF: the amyloid nucleation score result is “inactive”.
Then MRCWFTFVWCVIYY, with “inactive”.
Substance VKPWFS came in with an amyloid nucleation score of -0.145 ± 1.1.
VMYLLNFNIMGGLSRIIGGI: the amyloid nucleation score worked out at 6.47 ± 0.049.
As to LWRIVSWVECIRCTNP, the amyloid nucleation score came to 0.182 ± 0.79.
In the case of AKVCLYIAICLSLVNS it was 2.98 ± 0.065; in that of LYIDLHDEALRTTKMDMLNG, “inactive”.
Substance GSSNASVATGFVHIKEVKGG showed an amyloid nucleation score of 0.461 ± 0.8.
In the case of AQDWVARIRWSVRQFYGARC, the amyloid nucleation score came to 2.18 ± 0.14.
In the case of FRSMFISWVM it was -0.271 ± 1; in that of LFDGASMSRRIVMWDMGWWG, 4.54 ± 0.046.
Consider PFILLGTPELVTNGEHAERG, for which the amyloid nucleation score turned out to be 0.647 ± 0.66.
Turning to LQCAFFDSSNMWI, the amyloid nucleation score was -0.604 ± 0.76.
In the case of DSYGSFVKLMTVSVYMKGVF it was “inactive”; in that of CMPPRLWMW, -0.137 ± 1.1.
For RRVGTC, the amyloid nucleation score was -0.097 ± 0.74.
In the case of AAELLLSSGLVRQHAARRQY, the amyloid nucleation score was found to be 0.695 ± 0.26.
As for TCRLRFGCEYGQTFSCVSWA, the amyloid nucleation score is 0.531 ± 0.64.
Take RCSTFFEYSQTIPHYLVTLF: the amyloid nucleation score was -0.91 ± 0.44.
ILQGADLKLVYFVNHRMERV yielded an amyloid nucleation score of 1.24 ± 0.21.
In the case of KCYSYCLLAL it was -0.202 ± 1.1.
The substance FLNKDGNIV displayed an amyloid nucleation score of -0.022 ± 0.55.
SSGCS: the amyloid nucleation score is -0.021 ± 0.5.
Take ADGVSSWLTVLTFSHWRVK: the amyloid nucleation score was found to be 1 ± 0.31.
Consider LARSLSVNQYKPNLLFVGCD, for which the amyloid nucleation score was -1.52 ± 1.1.
RLHGGHLRRM: the amyloid nucleation score was found to be 0.902 ± 0.21.
HPKAYARVTTK showed an amyloid nucleation score of -0.068 ± 0.36.
Substance VGKLS returned an amyloid nucleation score of -0.528 ± 0.29.
Take TLVVRGHC: the amyloid nucleation score came out at 2.14 ± 0.11.
Substance FGNRLNFDILTTFVIKRWCM had an amyloid nucleation score of -0.342 ± 0.76.
In the case of LTSGVHCHKRTVHD it was -0.263 ± 1.1.
As to IRRTDREQ, the amyloid nucleation score worked out at 0.053 ± 0.24.
Turning to LAFTFRSTRRTTSHSEVSSS, the amyloid nucleation score is 1.38 ± 0.43.
As for RGWKSLWRLNFYVWVWHLKD, the amyloid nucleation score was 2.67 ± 0.09.
For VDITL, the amyloid nucleation score was -0.779 ± 0.56.
KRMKRLVCGTRVDMYRGSLW: the amyloid nucleation score was -0.222 ± 0.33.
Substance ASMVSVSVDEFGGFLPSCVS had an amyloid nucleation score of -0.55 ± 0.46.
On to VYKQVRNKVCSYLSLTERRW, for which the amyloid nucleation score amounted to 0.654 ± 0.57.
In turn, ACCSCIIVFINFTSLFFYRF yielded an amyloid nucleation score of -0.178 ± 1.1.
In the case of SRVFRSRMDGPFQWSGMGEV, the amyloid nucleation score stood at 2.24 ± 0.076.
The substance VSNTEMQTVHVPAGLLPSGF registered an amyloid nucleation score of -0.27 ± 1.1.
Turning to VCPPSDVS, the amyloid nucleation score entry is “inactive”.
The substance HKWEAKMGPISVLFRCFGLD returned an amyloid nucleation score of 1.09 ± 0.14.
With NTWYLTKADLDRVGAVMVQT, the amyloid nucleation score entry is “inactive”.
For the substance RYINWLQYECNTLCAVDKSL, the amyloid nucleation score is -0.436 ± 0.76.
Regarding VEWCRMVGWSFECEASEKHW, the amyloid nucleation score was 4.33 ± 0.055.
In turn, SLARYAGGFRARSGKIFSVC displayed an amyloid nucleation score of 0.802 ± 0.22.
The substance SGWTFGVQCLYTLVSMFLLC registered an amyloid nucleation score of 1.5 ± 0.12.
The substance CGLKDTTKLAVDVTPQNM returned an amyloid nucleation score of 0.908 ± 0.3.
NERFFKILCWLFRRNSFTIE returned an amyloid nucleation score of -2.24 ± 1.
Turning to LDTHRPPYQDRVWLTRSANT, the amyloid nucleation score is 1.79 ± 0.24.
The substance SREVRNANPSSGDDGSIRVE had an amyloid nucleation score of -0.02 ± 1.1.
In the case of QLVGMD it was 0.868 ± 0.27; in that of SVIISVVD, -0.851 ± 0.35.
FRDANKGCIEKFVVTCDFRM: the amyloid nucleation score turned out to be 0.003 ± 0.38.
Substance RNIRWPAHISAGDKGVSGEF returned an amyloid nucleation score of -0.65 ± 1.
Then SDNEEKTCGAFVVLS, with -0.719 ± 0.49; and VRTLGGL, with -0.653 ± 0.33; and SEWDLRVLTWYMWLFVPLVQ, with -0.477 ± 0.39.
In the case of QMEDSMYLNALRGVSWVTKL it was “inactive”.
GNFVRLLV registered an amyloid nucleation score of -0.031 ± 0.37.
Substance SIRSRLEFSFFL registered an amyloid nucleation score of 3.45 ± 0.047.
NLALFCLVLMMEHQRFPCKA: the amyloid nucleation score came out at 4.49 ± 0.072.
Substance CAFVGKVSTARLVSSRNSFN had an amyloid nucleation score of 5.801 ± 0.045.
Substance DLGGMP showed an amyloid nucleation score of -0.501 ± 0.48.
In the case of SFYSVTSPRWH it was 1.92 ± 0.17; in that of FLTYRLSNYYTPGKFCVYFK, “inactive”; in that of SGHGLWLDAWCRLLDNRGYL, -0.403 ± 0.44.
GMWFPLWFVDSSNSMSLLCV displayed an amyloid nucleation score of -1.59 ± 0.76.
For FRVDYKMKCAFASHFSNSFY, the amyloid nucleation score entry was “inactive”.
Substance FGWVINVNVRPTRFVTEGPV came in with an amyloid nucleation score of 6.54 ± 0.073.
Regarding KATDSRYRFFMILMFYMTIY, the amyloid nucleation score result was “inactive”.
In the case of EQSNSNPSHKY it was “inactive”; in that of VWLNSHFLMGRI, -1.46 ± 0.54.
Consider AGPSCL, for which the amyloid nucleation score came out at 0.537 ± 0.22.
Substance TFSTYSFLFVKTVI came in with an amyloid nucleation score of -0.417 ± 0.2.
Consider GVMSPHVTTFNILCVNNVLC, for which the amyloid nucleation score is 8.72 ± 0.07.
On to YITRFLPQVTVWQRVFCCSY, for which the amyloid nucleation score was found to be 7.454 ± 0.039.
In the case of MISYYLMSIYS it was 4.58 ± 0.065; in that of SSGFPE, -0.846 ± 0.42.
The substance CTFSRMSVFACILANQSVFY had an amyloid nucleation score of 7.861 ± 0.038.
Substance KLTFSCGGLGGNLYVWL showed an amyloid nucleation score of 7.999 ± 0.042.
Take SGFSLDLLVGGPCVPDLTVR: the amyloid nucleation score came out at 0.228 ± 1.
In the case of SSLCGNCLGVEVVEQVISCR it was -0.12 ± 0.23; in that of SFHWPSTGYKRVYFSPLLIV, “inactive”; in that of GCNRQMSARK, 4.29 ± 0.044.
In the case of FRGVLWLSYLQDYRFDLYCM it was -0.773 ± 0.61.
Take KALYYY: the amyloid nucleation score result was “inactive”.
On to VSSFVKLIWQVALINWVRMG, for which the amyloid nucleation score result was “inactive”.
In the case of VSCCYRFSASNQIIVTPFSS it was 8.119 ± 0.026; in that of INHKQGCSTVWPVAKVCMLV, 0.201 ± 1.
HLSYILGVGMFNVHHDNGFF registered an amyloid nucleation score of 2.5 ± 0.2.
Substance REWVRYCRCWSCYYPTFFS yielded an amyloid nucleation score of -0.198 ± 0.63.
Regarding VLCGNSFMNCCSAFRCGSAV, the amyloid nucleation score is 8.923 ± 0.059.
Then TFIHN, with -0.161 ± 0.19; and SFEWKPVFLSRLRPRIRHQV, with 5.66 ± 0.066.
Then MWRTLGYHTNMVSA, with “inactive”; and SSIINMTDAVGWFLELKNGE, with 0.177 ± 0.37; and LCRDCPNRVQLCQLL, with -0.684 ± 0.54.
In the case of VFLFDLGYQGR, the amyloid nucleation score is 6.67 ± 0.073.
Substance CFQYTQTNVMRFSYGIGHRE came in with an amyloid nucleation score of 2.12 ± 0.18.
As to SFDKGIDYRFFTFNSNVKYW, the amyloid nucleation score came out at 3.49 ± 0.12.
In the case of FGWGN it was 0.09 ± 0.51; in that of MELTSN, “inactive”; in that of FCTLCFSLCQ, 1.82 ± 0.23.
GRNLMLSGVCGYKDVFLQAR: the amyloid nucleation score was determined as 0.359 ± 0.34.
Turning to SLENWLCAVPLCGESLEKVW, the amyloid nucleation score worked out at 0.469 ± 0.41.
Substance VPGLESMR displayed an amyloid nucleation score of 0.57 ± 0.81.
TVDNPSNSFTFFRVYQLYVR came in with an amyloid nucleation score of 3.11 ± 0.14.
Take VFTTQEGTTTIPRNSMIEYA: the amyloid nucleation score is -0.193 ± 0.37.
In turn, CELEGWSVGSRVNLLILIR displayed an amyloid nucleation score of -0.213 ± 1.1.
For the substance KIKYYEAIDGACNSGWFDLG, the amyloid nucleation score was 2.92 ± 0.057.
Then VDRYLSHCVGKGLDF, with -0.55 ± 0.56.
For SSYGWSGTC, the amyloid nucleation score was -0.833 ± 0.63.
With WIREY, the amyloid nucleation score was -0.43 ± 0.32.
Then FKNFFSYLLLGVPLIAAITW, with -1.67 ± 0.41.
YFSSTYLRQGIFWCFRMSRL registered an amyloid nucleation score of -0.43 ± 1.1.
The substance TSSTTGSYLWEDEDYSYNFF registered an amyloid nucleation score of 1.68 ± 0.12.
On to PNMGLVNCRRNFCCRLWRIC, for which the amyloid nucleation score was -0.469 ± 1.1.
Take GSCRDLDLLLERHWRVVSNL: the amyloid nucleation score came out at 0.903 ± 0.57.
As to VHLVSLSLNKTLYDFLTGMG, the amyloid nucleation score was -0.178 ± 0.35.
Consider YGPGFILSQMMNWLWYSCSS, for which the amyloid nucleation score was -0.765 ± 0.78.
In turn, DGVSHC had an amyloid nucleation score of 0.02 ± 0.79.
Regarding ALENNIDPLGELASVPGCSG, the amyloid nucleation score was 0.843 ± 0.27.
In the case of ESGCQGNSLKCVLSRCNGWR, the amyloid nucleation score was found to be 3.45 ± 0.1.
In the case of TSRRHYIVSVNLMK it was “inactive”; in that of SFIVQHE, 0.16 ± 0.55; in that of VGYLALQFLVRCMY, “inactive”.
Take CLYMRFAFHLPELRALTKSP: the amyloid nucleation score came to 0.094 ± 0.77.
TFFDGSCLVRLSWAQLEFLT came in with an amyloid nucleation score of -0.471 ± 0.41.
Take TYEMSVVGVEWWVTGQLTIC: the amyloid nucleation score was 1.68 ± 0.38.
The substance VSQGRFKYERVVCVNFGKEL showed an amyloid nucleation score of 0.201 ± 0.74.
As to SWGTRV, the amyloid nucleation score result was “inactive”.
Then LIKLMGLV, with 0.466 ± 0.43; and CNCQYHSVWIT, with 0.392 ± 0.26.
The substance IYCVRQSDGQYSSEMAHYII yielded an amyloid nucleation score of 2.64 ± 0.094.
